Stoichiometry N data for one substance are collected here from publication PMC11843870.

The test deals with Xn-XptA2 wt (A subunit, TcA, of the ABC toxin complex of Xenorhabdus nematophilus) (Xenorhabdus nematophilus). In words: cryo-EM structure; single particle analysis, 1.5 mg/mL protein in 10 mM Tris, 100 mM NaCl, pH 7.5; C5 symmetry.

By stoichiometry N is commonly meant the number of molecules, sites or subunits per partner or assembly. Turning to “Xn-XptA2 wt (A subunit, TcA, of the ABC toxin complex of Xenorhabdus nematophilus) (natural protein)”, the stoichiometry N was found to be 5.
